Literature values in PMC10582360, “A nanoparticle platform for combined mucosal healing and immunomodulation in inflammatory bowel disease treatment” (Bioactive materials, 2023).

Test system: dipeptidyl peptidase IV (DPP-IV)
Settings: ref [4]
From the text: Teduglutide, a GLP-2 analog with prolonged half-life, is commercialized as a daily subcutaneous injection (Gattex®, Revestive®) for its use in short bowel syndrome (SBS) in patients who are dependent on parenteral support. A second long-acting GLP-2 analog, glepaglutide (Zealand Pharma), has just ...

Substance: Glucagon-like peptide 2 [GLP-2]
- cleavage by DPP-IV: rapidly cleaved
